Data taken from the supplement of paper PMC11246515.
± gives the standard deviation of the averaged measurements.

Experiment: total protein half-life in vivo (active degradation + dilution); higher = more stable protein
[1] = E. coli NCM3722 delta-clpP delta-lon delta-hslV, growth: N-lim chemostat, doubling time 6 h
[2] = E. coli NCM3722 delta-clpP, growth: N-lim chemostat, doubling time 6 h
[3] = E. coli NCM3722 delta-lon, growth: N-lim chemostat, doubling time 6 h
[4] = E. coli NCM3722 delta-smpB, growth: N-lim chemostat, doubling time 6 h
[5] = wild type E. coli NCM3722, growth: C-lim chemostat, doubling time 3 h
[6] = wild type E. coli NCM3722, growth: C-lim chemostat, doubling time 6 h
[7] = wild type E. coli NCM3722, growth: C-lim chemostat, doubling time 12 h
[8] = wild type E. coli NCM3722, growth: N-lim chemostat, doubling time 6 h
[9] = wild type E. coli NCM3722, growth: N-lim chemostat, doubling time 12 h
[10] = wild type E. coli NCM3722, growth: P-lim chemostat, doubling time 6 h
[11] = wild type E. coli NCM3722, growth: P-lim chemostat, doubling time 12 h
[12] = E. coli NCM3722 delta-hslV, growth: N-lim chemostat, doubling time 6 h

MMLSKKNSETLENFSEKLEVEGRSLWQDARRRFMHNRAAVASLIVLVLIALFVILAPMLSQFAYDDTDWAMMSSAPDMESGHYFGTDSSGRDLLVRVAIGGRISLMVGVAAALVAVVVGTLYGSLSGYLGGKVDSVMMRLLEILNSFPFMFFVILLVTFFGQNILLIFVAIGMVSWLDMARIVRGQTLSLKRKEFIEAAQVGGVSTSGIVIRHIVPNVLGVVVVYASLLVPSMILFESFLSFLGLGTQEPLSSWGALLSDGANSMEVSPWLLLFPAGFLVVTLFCFNFIGDGLRDALDPKDR [P0AFH6]
total protein half-life in vivo [1]: 5.16 ± 0.26 h
total protein half-life in vivo [2]: 5.51 ± 0.1 h
total protein half-life in vivo [3]: 4.46 ± 0.22 h
total protein half-life in vivo [4]: 5.01 ± 0.59 h
total protein half-life in vivo [5]: 3.23 ± 0.41 h
total protein half-life in vivo [6]: 5.484 ± 0.036 h
total protein half-life in vivo [7]: 10.8 ± 2.5 h
total protein half-life in vivo [8]: 5.17 ± 0.17 h
total protein half-life in vivo [9]: 8.49 ± 0.1 h
total protein half-life in vivo [10]: 5.37 ± 0.46 h
total protein half-life in vivo [11]: 9.83 ± 1.2 h

MTDLTAQEPAWQTRDHLDDPVIGELRNRFGPDAFTVQATRTGVPVVWIKREQLLEVGDFLKKLPKPYVMLFDLHGMDERLRTHREGLPAADFSVFYHLISIDRNRDIMLKVALAENDLHVPTFTKLFPNANWYERETWDLFGITFDGHPNLRRIMMPQTWKGHPLRKDYPARATEFSPFELTKAKQDLEMEALTFKPEEWGMKRGTENEDFMFLNLGPNHPSAHGAFRIVLQLDGEEIVDCVPDIGYHHRGAEKMGERQSWHSYIPYTDRIEYLGGCVNEMPYVLAVEKLAGITVPDRVNVIRVMLSELFRINSHLLYISTFIQDVGAMTPVFFAFTDRQKIYDLVEAITGFRMHPAWFRIGGVAHDLPRGWDRLLREFLDWMPKRLASYEKAALQNTILKGRSQGVAAYGAKEALEWGTTGAGLRATGIDFDVRKARPYSGYENFDFEIPVGGGVSDCYTRVMLKVEELRQSLRILEQCLNNMPEGPFKADHPLTTPPPKERTLQHIETLITHFLQVSWGPVMPANESFQMIEATKGINSYYLTSDGSTMSYRTRVRTPSFAHLQQIPAAIRGSLVSDLIVYLGSIDFVMSDVDR
total protein half-life in vivo [1]: 6.01 ± 0.11 h
total protein half-life in vivo [2]: 7.18 ± 1.1 h
total protein half-life in vivo [12]: 5.883 ± 0.042 h
total protein half-life in vivo [3]: 6.39 ± 0.17 h
total protein half-life in vivo [4]: 6.2 ± 0.22 h
total protein half-life in vivo [5]: 3.32 ± 0.17 h
total protein half-life in vivo [6]: 6.15 ± 0.1 h
total protein half-life in vivo [7]: 11.43 ± 0.014 h
total protein half-life in vivo [8]: 6.33 ± 0.14 h
total protein half-life in vivo [9]: 12.22 ± 0.12 h
total protein half-life in vivo [10]: 6.224 ± 0.032 h
total protein half-life in vivo [11]: 11.84 ± 0.096 h

MSAKHPVIAVTGSSGAGTTTTSLAFRKIFAQLNLHAAEVEGDSFHRYTRPEMDMAIRKARDAGRHISYFGPEANDFGLLEQTFIEYGQSGKGKSRKYLHTYDEAVPWNQVPGTFTPWQPLPEPTDVLFYEGLHGGVVTPQHNVAQHVDLLVGVVPIVNLEWIQKLIRDTSERGHSREAVMDSVVRSMEDYINYITPQFSRTHLNFQRVPTVDTSNPFAAKGIPSLDESFVVIHFRNLEGIDFPWLLAMLQGSFISHINTLVVPGGKMGLAMELIMLPLVQRLMEGKKIE [P0AEX5]
total protein half-life in vivo [1]: 5.45 ± 0.28 h
total protein half-life in vivo [2]: 5.4 ± 0.23 h
total protein half-life in vivo [12]: 4.95 ± 0.67 h
total protein half-life in vivo [3]: 4.68 ± 1.1 h
total protein half-life in vivo [4]: 5.185 ± 0.032 h
total protein half-life in vivo [5]: 2.96 ± 0.14 h
total protein half-life in vivo [6]: 5.5 ± 0.22 h
total protein half-life in vivo [7]: 11.8 ± 3.6 h
total protein half-life in vivo [8]: 5.42 ± 0.28 h
total protein half-life in vivo [9]: 10.9 ± 2.4 h
total protein half-life in vivo [10]: 6.156 ± 0.01 h
total protein half-life in vivo [11]: 12.4 ± 2.5 h

MIVTIVGWLVLFVFLPNLMIIGTSFLTRDDASFVKMVFTLDNYTRLLDPLYFEVLLHSLNMALIATLACLVLGYPFAWFLAKLPHKVRPLLLFLLIVPFWTNSLIRIYGLKIFLSTKGYLNEFLLWLGVIDTPIRIMFTPSAVIIGLVYILLPFMVMPLYSSIEKLDKPLLEAARDLGASKLQTFIRIIIPLTMPGIIAGCLLVMLPAMGLFYVSDLMGGAKNLLIGNVIKVQFLNIRDWPFGAATSITLTIVMGLMLLVYWRASRLLNKKVELE [P0AFK4]
total protein half-life in vivo [1]: 4.04 ± 3 h
total protein half-life in vivo [4]: 5.57 ± 0.42 h
total protein half-life in vivo [6]: 5.93 h
total protein half-life in vivo [7]: 9.29 ± 5.5 h
total protein half-life in vivo [8]: 5.03 h
total protein half-life in vivo [10]: 2.09 h
total protein half-life in vivo [11]: 6.6 h

MSKTHLTEQKFSDFALHPKVVEALEKKGFHNCTPIQALALPLTLAGRDVAGQAQTGTGKTMAFLTSTFHYLLSHPAIADRKVNQPRALIMAPTRELAVQIHADAEPLAEATGLKLGLAYGGDGYDKQLKVLESGVDILIGTTGRLIDYAKQNHINLGAIQVVVLDEADRMYDLGFIKDIRWLFRRMPPANQRLNMLFSATLSYRVRELAFEQMNNAEYIEVEPEQKTGHRIKEELFYPSNEEKMRLLQTLIEEEWPDRAIIFANTKHRCEEIWGHLAADGHRVGLLTGDVAQKKRLRILDEFTRGDLDILVATDVAARGLHIPAVTHVFNYDLPDDCEDYVHRIGRTGRAGASGHSISLACEEYALNLPAIETYIGHSIPVSKYNPDALMTDLPKPLRLTRPRTGNGPRRTGAPRNRRRSG [P0A8J8]
total protein half-life in vivo [1]: 6.02 ± 0.1 h
total protein half-life in vivo [2]: 5.9 ± 0.37 h
total protein half-life in vivo [12]: 5.52 ± 0.76 h
total protein half-life in vivo [3]: 5.16 ± 0.18 h
total protein half-life in vivo [4]: 4.94 ± 0.49 h
total protein half-life in vivo [5]: 3.18 ± 0.11 h
total protein half-life in vivo [6]: 5.73 ± 0.11 h
total protein half-life in vivo [7]: 9.86 ± 0.77 h
total protein half-life in vivo [8]: 4.71 ± 0.18 h
total protein half-life in vivo [9]: 7.89 ± 0.44 h
total protein half-life in vivo [10]: 5.06 ± 0.39 h
total protein half-life in vivo [11]: 9.85 ± 0.23 h

MTAINRILIVDDEDNVRRMLSTAFALQGFETHCANNGRTALHLFADIHPDVVLMDIRMPEMDGIKALKEMRSHETRTPVILMTAYAEVETAVEALRCGAFDYVIKPFDLDELNLIVQRALQLQSMKKEIRHLHQALSTSWQWGHILTNSPAMMDICKDTAKIALSQASVLISGESGTGKELIARAIHYNSRRAKGPFIKVNCAALPESLLESELFGHEKGAFTGAQTLRQGLFERANEGTLLLDEIGEMPLVLQAKLLRILQEREFERIGGHQTIKVDIRIIAATNRDLQAMVKEGTFREDLFYRLNVIHLILPPLRDRREDISLLANHFLQKFSSENQRDIIDIDPMAMSLLTAWSWPGNIRELSNVIERAVVMNSGPIIFSEDLPPQIRQPVCNAGEVKTAPVGERNLKEEIKRVEKRIIMEVLEQQEGNRTRTALMLGISRRALMYKLQEYGIDPADV
total protein half-life in vivo [1]: 5.23 ± 2.1 h
total protein half-life in vivo [2]: 3.82 h
total protein half-life in vivo [12]: 2.7 h
total protein half-life in vivo [3]: 3.5 h
total protein half-life in vivo [4]: 2.912 ± 0.0036 h
total protein half-life in vivo [5]: 3.09 ± 0.26 h
total protein half-life in vivo [6]: 5.56 ± 0.094 h
total protein half-life in vivo [7]: 10.6 ± 2.5 h
total protein half-life in vivo [8]: 3.16 h
total protein half-life in vivo [10]: 4.99 ± 0.19 h
total protein half-life in vivo [11]: 10.9 ± 1.7 h
